In patent CN105542007A (UNIV NANCHANG, dated 2016):

What was measured:
[1] = target: T1, 重组表达的PSMA胞外区蛋白 (recombinant extracellular domain of prostate-specific membrane antigen, expressed in HEK-293) (UniProt Q04609 44-750, limits assumed); assay: indirect phage-ELISA, PSMA extracellular domain coated at 5 μg/mL, HRP-anti-M13 detection
T1 construct: extracellular domain; Cloned into pRAG2a via NotI/BamHI, secreted from HEK-293 cells and purified with HisTrap; also called 前列腺特异性膜抗原膜外区; PSMA蛋白; not shown: His tag (purified with HisTrap, detected with anti-His antibody)

[2] = target: T2, 前列腺特异性膜抗原 (PSMA) on LNCaP prostate cancer cells (UniProt Q04609 1-750, limits assumed); assay: cell ELISA on fixed LNCaP (PSMA+) against MKN45 (PSMA-) cells, HRP-anti-M13 detection, OD450
T2 construct: whole, on cells; Endogenous PSMA on fixed LNCaP cells; also called LNCaP细胞(表达PSMA)
T2 sequence (Q04609 whole entry): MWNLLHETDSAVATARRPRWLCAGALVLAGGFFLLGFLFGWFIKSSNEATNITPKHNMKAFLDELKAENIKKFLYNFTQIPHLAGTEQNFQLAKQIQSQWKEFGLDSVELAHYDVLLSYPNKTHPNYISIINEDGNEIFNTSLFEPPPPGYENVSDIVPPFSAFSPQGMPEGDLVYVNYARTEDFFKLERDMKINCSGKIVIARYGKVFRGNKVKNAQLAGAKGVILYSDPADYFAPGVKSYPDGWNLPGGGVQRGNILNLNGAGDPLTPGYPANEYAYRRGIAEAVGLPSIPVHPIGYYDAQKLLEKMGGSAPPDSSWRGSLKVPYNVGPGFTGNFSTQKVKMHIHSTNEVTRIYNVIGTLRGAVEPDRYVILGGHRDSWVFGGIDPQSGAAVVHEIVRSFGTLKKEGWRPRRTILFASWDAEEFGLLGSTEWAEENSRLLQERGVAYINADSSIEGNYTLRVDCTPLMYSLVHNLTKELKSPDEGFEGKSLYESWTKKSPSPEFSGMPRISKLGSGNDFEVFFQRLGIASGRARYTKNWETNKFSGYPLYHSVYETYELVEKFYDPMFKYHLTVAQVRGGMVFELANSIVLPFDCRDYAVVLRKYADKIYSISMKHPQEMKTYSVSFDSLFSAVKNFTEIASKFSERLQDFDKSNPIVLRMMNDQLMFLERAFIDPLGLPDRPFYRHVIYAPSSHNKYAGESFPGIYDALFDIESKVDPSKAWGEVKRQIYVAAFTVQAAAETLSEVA

T1 sequence (Q04609 44-750 limits assumed): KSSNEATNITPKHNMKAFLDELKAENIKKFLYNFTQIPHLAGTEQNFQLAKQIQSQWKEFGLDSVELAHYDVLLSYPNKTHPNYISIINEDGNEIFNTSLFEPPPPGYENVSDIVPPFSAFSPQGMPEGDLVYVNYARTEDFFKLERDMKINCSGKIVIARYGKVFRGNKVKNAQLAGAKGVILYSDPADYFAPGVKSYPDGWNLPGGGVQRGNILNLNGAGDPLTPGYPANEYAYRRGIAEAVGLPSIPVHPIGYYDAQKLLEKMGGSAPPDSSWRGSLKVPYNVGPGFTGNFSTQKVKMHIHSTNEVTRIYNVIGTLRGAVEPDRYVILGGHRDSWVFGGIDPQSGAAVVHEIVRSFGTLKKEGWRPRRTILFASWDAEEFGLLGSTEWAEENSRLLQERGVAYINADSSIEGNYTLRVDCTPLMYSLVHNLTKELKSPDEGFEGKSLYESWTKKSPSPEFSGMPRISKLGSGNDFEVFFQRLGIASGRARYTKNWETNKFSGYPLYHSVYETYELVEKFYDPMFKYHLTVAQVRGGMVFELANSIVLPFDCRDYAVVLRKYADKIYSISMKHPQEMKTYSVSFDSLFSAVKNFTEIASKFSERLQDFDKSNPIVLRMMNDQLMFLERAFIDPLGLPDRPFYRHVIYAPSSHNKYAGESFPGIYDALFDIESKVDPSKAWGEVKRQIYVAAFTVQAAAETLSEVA

B1: 抗前列腺特异性膜抗原单域重链抗体噬菌体阳性克隆 (phage clone displaying the anti-PSMA single-domain heavy-chain antibody of SEQ ID NO: 1) (VHH)
VHH: QLQLVESGGGLVQAGGSLRLSCAASGRTFSRYAVGWFRQAPGKEREFVSGLSWTGSSTLYADSVKGRFTFSRDNAKKMVYLQMNTLMPEDTAVYYCAARKTRGKSYEYWGQGTQVTVSS
notes: VHH selected from a naive camelid phage display library; It was tested as a phage particle and detected with anti-M13 antibody, not as a purified protein; also called 针对前列腺特异性膜抗原的单域重链抗体阳性克隆; 展示本发明所述纳米抗体的噬菌体克隆; not shown: the phage coat protein fusion and any linker or tag are not described
[1]
  binding result: binds
[2]
  binding result: binds
